Test results taken from paper PMC3936775, “Differential contribution of basic residues to HIV-1 nucleocapsid protein’s nucleic acid chaperone function and retroviral replication”.

What was measured:
[1] = biological target: HIV-1 NC WT (HIV-1 (NL4-3 isolate)) (UniProt P12493); assay: fluorescence anisotropy; conditions: FA: 20 mM HEPES pH 7.5, 50 mM NaCl, 10 uM TCEP, 5 mM beta-mercaptoethanol, 1 uM zinc acetate, 20 C, 30 min; 20 nM micro-TAR RNA or 10 nM (TG)4 DNA (Table …)
HIV-1 NC WT = HIV-1 NC WT (HIV-1 (NL4-3 isolate), UniProt P12493 378-432); assay: fluorescence anisotropy; 1 uM zinc acetate; FA: 20 mM HEPES pH 7.5, 50 mM NaCl, 10 uM TCEP, 5 mM beta-mercaptoethanol, 1 uM zinc acetate, 20 C, 30 min; 20 nM micro-TAR RNA or 10 nM (TG)4 DNA (Table 1 footnote: room temperature); conditions: protein: recombinant; label: 5' carboxyfluorescein (FAM); single strand

Molecule | Kd [1] | Kd (HIV-1 NC WT)
micro-TAR RNA 18-mer | 315 nM | –
TGTGTGTG (ssDNA) [(TG)4 DNA] | – | 5 ± 1 nM
